Values of other authors, collected in patent publication US7276335B1, “Designing compounds specifically inhibiting ribonucleic acid function” (Massachusetts Institute of Technology, priority 1993, dated 2007).

Tests used:
[1] = tested on: sarcoma
[2] = tested on: eukaryotic 28 S rRNA; details: cleaves one phosphodiester bond on the 3′ side of G-4325
[3] = tested on: normal cells as well as tumor cells; details: too toxic for use clinically to treat tumors

B1: α-sarcin: cytotoxic protein with potent antisarcoma activity, isolated from a mold, that inactivates ribosomes by cleaving the rRNA (protein, UniProt P00655 28-177, looked up)
Ribonuclease alpha-sarcin: AVTWTCLNDQKNPKTNKYETKRLLYNQNKAESNSHHAPLSDGKTGSSYPHWFTNGYDGDGKLPKGRTPIKFGKSDCDRPPKHSKDGNGKTDHYLLEFPTFPDGHDYKFDSKKPKENPGPARVIYTYPNKVFCGIIAHTKENQGELKLCSH
In the case of B1, the antisarcoma activity [1] is given as “potent antisarcoma activity”, the “inactivation of ribosomes by rRNA cleavage” value [2] is given as “inactivates ribosomes by cleaving the rRNA” and the toxicity to cells [3] is given as “highly toxic to normal cells as well as tumor cells”.
